# Measured values reported in the DeepSol protein solubility set.
# Assay: soluble on expression in E. coli; label from the status in PepcDB or PDB records
row,Sequence,soluble on expression in E. coli
1,MSQLCPCGSAVEYSLCCHPYVSGEKVAPDPEHLMRSRYCAFVMQDADYLIKTWHPSCGAAALRAELMAGFAHTEWLGLTVFEHCWQDADNIGFVSFVARFTEGGKTGAIIERSRFLKENGQWYYIDGTRPQFGRNDPCPCGSGKKFKKCCGQ,not soluble
2,MSAQINNIRPEFDREIVDIVDYVMNYEISSKVAYDTAHYCLLDTLGCGLEALEYPACKKLLGPIVPGTVVPNGVRVPGTQFQLDPVQAAFNIGAMIRWLDFNDTWLAAEWGHPSDNLGGILATADWLSRNAVASGKAPLTMKQVLTAMIKAHEIQGCIALENSFNRVGLDHVLLVKVASTAVVAEMLGLTREEILNAVSLAWVDGQSLRTYRHAPNTGTRKSWAAGDATSRAVRLALMAKTGEMGYPSALTAPVWGFYDVSFKGESFRFQRPYGSYVMENVLFKISFPAEFHSQTAVEAAMTLYEQMQAAGKTAADIEKVTIRTHEACIRIIDKKGPLNNPADRDHCIQYMVAIPLLFGRLTAADYEDNVAQDKRIDALREKINCFEDPAFTADYHDPEKRAIANAITLEFTDGTRFEEVVVEYPIGHARRRQDGIPKLVDKFKINLARQFPTRQQQRILEVSLDRARLEQMPVNEYLDLYVI,soluble
3,VKVQPNDYVFRDLANHNQIFVKDKDPKVYNNPYYIDQVQLKDAQQTDLTSIQASFTTLDGVDKTEILKELKVTDKNQNAIQISDITLDTSKSLLIIKGDFNPKQGHFNISYNGNNVTTRQSWEFKDQLYAYSGNLGAVLNQDGSKVEASLWSPSADSVTMIIYDKDNQNRVVATTPLVKNNKGVWQTILDTKLGIKNYTGYYYLYEIKRGKDKVKILDPYAKSLAEWDSNTVNDDIKTAKAAFVNPSQLGPQNLSFAKIANFKGRQDAVIYEAHVRDFTSDQSLDGKLKNQLGTFAAFSEKLDYLQKLGVTHIQLLPVLSYFYVNEMDKSRSTAYTSSDNNYNWGYDPQSYFALSGMYSEKPKDPSARIAELKQLIHDIHKRGMGVILDVVYNHTAKTYLFEDIEPNYYHFMNEDGSPRESFGGGRLGTTHAMSRRVLVDSIKYLTSEFKVDGFRFDMMGDHDAAAIELAYKEAKAINPNMIMIGEGWRTFQGDQGKPVKPADQDWMKSTDTVGVFSDDIRNSLKSGFPNEGTPAFITGGPQSLQGIFKNIKAQPGNFEADSPGDVVQYIAAHDNLTLHDVIAKSINKDPKVAEEDIHRRLRLGNVMILTSQGTAFIHSGQEYGRTKRLLNPDYMTKVSDDKLPNKATLIEAVKEYPYFIHDSYDSSDAINHFDWAAATDNNKHPISTKTQAYTAGLITLRRSTDAFRKLSKAEIDREVSLITEVGQGDIKEKDLVIAYQTIDSKGDIYAVFVNADSKARNVLLGEKYKHLLKGQVIVDADQAGIKPISTPRGVHFEKDSLLIDPLTAIVIKVGKVAPSPKEELQADYPKTQSFKGSKTVEKVNRIANKTSITPVVSNKTDSYLTNEANLEHHHHHH,soluble
4,MGSDKIHHHHHHMDVQVYFSKVEDPRVVGRCKHKLSDILVIALASYLCGGEDYESMHELCLERGASLRPPVELPNGCPSVDTFERVLQRIEPQSLYACLQVYGKELISDLEGKHIAIDGKRLKGSKKKTGSTHILSAWVDEVSLSLAQETVAEKRNELQAIPEVLDSLDLSGAVISINAMGTQTNIAEQIIQSEADYILSLKSNQKHLYEDVQDYFTGQYRCHRYETLEKDHGRIEKRTYTTLLASEVFEEGEYSQWQGLRSLIQVEREISSLEGETRIDRQYYISSLPPEDCQLIGQYIRGHWGIENRLHWHLDVTFREDTCRARKDYSATNLNTLRKFALAIVSGHKDKLSLRKRLFKAALNIDYLKKLLKI,not soluble
5,GAMGSMERASLIQKAKLAEQAERYEDMAAFMKGAVEKGEELSCEERNLLSVAYKNVVGGQRAAWRVLSSIEQKSNEEGSEEKGPEVREYREKVETELQGVCDTVLGLLDSHLIKEAGDAESRVFYLKMKGDYYRYLAEVATGDDKKRIIDSARSAYQEAMDISKKEMPPTNPIRLGLALNFSVFHYEIANSPEEAISLAKTTFDEAMADLHTLSEDSYKDSTLIMQLLRDNLTLWTADNAGEEGGEAPQEPQS,soluble
6,EVQLQESGPGLVKPYQSLSLSCTVTGYSITSDYAWNWIRQFPGNKLEWMGYITYSGTTDYNPSLKSRISITRDTSKNQFFLQLNSVTTEDTATYYCARYYYGYWYFDVWGQGTTLTVSSAKTTAPSVYPLAPVSSVTLGCLVKGYFPEPVTLTWNSGSLSSGVHTFPAVLQSDLYTLSSSVTVTSSTWPSQSITCNVAHPASSTKVDKKIEPR,soluble
7,MHIDNEDALFDWLSDELSPITDADPNALAKYVLALVKKPDKGHDELKAFTNEQLNVFLTDHTAPFVDKVFEALTSKSYMPASTAPTSASATAPDLKKEKAPAEKPSKPTAPPGVQKSSSSPSASKAESRPLRKRISPPPSENREKEKQSRDKERRRSRSPRDRRGRATTSRSGRTSSSDRDRHSKRRSRSRSRSSSGSRTPPYKSRSSRRRCKDFEERGYCIRGDQCPYYHGRDPVVVDENALGSMVPLPATAPNFSLPPPGYNPLNPPPPGVVVAAGEYNPEAPALNNYSIPPPPIPGQWQQPHVAAQYVPQSVSSYSQPPPAAAQGVVTQPGSFRGAPRGRGNIRGRGGFARGGFTGAINRDNCTLQVAKIPPEMNTIAKLNEHFATFGTVDNIQVRYNGEIDSALVTYASKFDAGKAYKSPTPVLNNRFIKVFWHNPGGEGSENATGKPSSPTSPPKPVEKPKIATVQESKFVSVAAQNYRKQIQDAKERLTKEKSILSTLVQAQNQHNIILDKWMVKQKELLIKARTSTDETDKKNATKLVKHLHKKIKACKEEVDGILLKISEKSMVVDEIAAQIEELKNPQKSDDSTRKRKAGSDGDEPQSKMSSVVIVRGVTDELVTDLMAHMEKFGEVFDHSVKADDDGLITAVFPFRKTGDALKAMADGKVLNGVDLEMELKTERIEEIPSTDTNMSADQLLAAIPSNLESDEEDDLLND,not soluble
8,SLRITAIREIAVPLQGNISNSLVSFAEHTVSLVALVSDVVRDGRPLIGYAFDSIGRYAQPGLMRERFIPRLLQAAPHELLDDGGQAFDPARASAIMLRNEKPGGHGDRAAAVGALELAFWDLNAKLRDEPAYCTIARHVGRPAQAGATQVYAAGGYYYDSGDPLQRLRDEFRGYLDQGFVKFKMKIGGASLADDLARIEAALGVAGEGANLAVDANGRFDLDTALAYARALEPYGLRWYEEIGDPLDYHLNSLVAQAYAGTIATGENLFSLPDVRNLLHFAGVRPGRDILQMDPGLSYGLTEYLRMMAAVEAAGFGRSCLHPHGGHLINLHIAAGLGLGGCEAYPGVFQPFGGYPAACALGAGQVRPTDAPGFGLEQKQELAPYISVLAHG,soluble
9,MSLAATALLEAGLARVLFYPTLLYTLFRGKVPGRAHRDWYHRIDPTVLLGALPLRSLTRQLVQDENVRGVITMNEEYETRFLCNSSQEWKRLGVEQLRLSTVDMTGIPTLDNLQKGVQFALKYQSLGQCVYVHCKAGRSRSATMVAAYLIQVHKWSPEEAVRAIAKIRSYIHIRPGQLDVLKEFHKQITARATKDGTFVISKTEGHHHHHH,soluble
10,GSHMPTAIESCMVKFELSSSKWHMTSPKPHCVNTTSDGKLKILQSGTYLIYGQVIPVDKKYIKDNAPFVVQIYKKNDVLQTLMNDFQILPIGGVYELHAGDNIYLKFNSKDHIQKTNTYWGIILMPDLPFIS,soluble
11,RPNKGAQQEDERIIQAFDKAIQYMSKRKIGALITIERNTGLDEYIETGIDLDADITGELLINIFIPNTPLHDGAVIIKNEKIAVASAYLPLSESNLIPKEFGTRHRAAVGISEVSDAITIVVSEETGDVSLTLNNELIPGL,not soluble
12,MTKFIGCIDLHNGEVKQIVGGTLTSKKEDVPKTNFVSQHPSSYYAKLYKDRDVQGCHVIKLGPNNDDAAREALQESPQFLQVGGGINDTNCLEWLKWASKVIVTSWLFTKEGHFQLKRLERLTELCGKDRIVVDLSCRKTQDGRWIVAMNKWQTLTDLELNADTFRELRKYTNEFLIHAADVEGLCGGIDELLVSKLFEWTKDYDDLKIVYAGGAKSVDDLKLVDELSHGKVDLTFGSSLDIFGGNLVKFEDCCRWNEKQG,soluble
13,MKEKIPFYNEKEFNEMMKKTKKGTFSGWYIINPENNSVEFSGSFNRQFKLNKPIIPVNTEYVTRKEFNEYKDSNDQRLIKIETTLTAQGEQINKLTQTVEKQGEQIRELQVEQKAQGEQIKAQGETLKLILQTLQKMSDRLDKIDPPK,soluble
